The target of one experiment is human MMP-14 (human, UniProt P50281 112-541, limits assumed). The experiment is described as follows: cell-based or functional assay.
Another experiment addresses MMP-24 (human, UniProt Q9Y5R2 156-328, limits assumed). The experiment is described as follows: cell-based or functional assay.

MMP-24, sequence (Q9Y5R2 156-328 limits assumed): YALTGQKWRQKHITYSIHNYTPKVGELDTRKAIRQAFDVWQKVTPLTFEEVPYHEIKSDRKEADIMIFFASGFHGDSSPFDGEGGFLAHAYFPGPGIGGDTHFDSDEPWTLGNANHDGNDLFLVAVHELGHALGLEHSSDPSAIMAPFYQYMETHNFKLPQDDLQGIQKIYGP

B1: M0037-C09 Fab (Fab, V domains shown)
VH: EVQLLESGGGLVQPGGSLRLSCAASGFTFSHYEMFWVRQAPGKGLEWVSSISPSGGQTHYADSVKGRFTISRDNSKNTLYLQMNSLRAEDTAVYYCATDRTYYDFWSGYGPLWYWGQGTLVTVSS
VL: DIQMTQSPLSLPVTLGESASVSCRSSQSLLHENGHNYLDWYLQKPGQSPQLLIYLGSNRASGVPDRFSGSGSGTDFTLKISRVEAEDVGVYYCMQSLKTPPTFGPGTKVEIK
Regarding B1, in the experiment with human MMP-14, the “IC50 of MMP-14 inhibition (MMP-14 at 2 pM), Fab” value (from here on “IC50 of MMP-14 inhibition … Fab”) was 11.5 nM. Also, in the experiment with MMP-24, the “MMP-24 activity, 100 nM final Fab with 5 nM MMP-24” value (shortened to “MMP-24 activity, 100 nM final Fab”) amounted to 72 % inhibition.

B2: M0040-A06 Fab (Fab, V domains shown)
VH: EVQLLESGGGLVQPGGSLRLSCAASGFTFSYYGMYWVRQAPGKGLEWVSSISSSGGYTDYADSVKGRFTISRDNSKNTLYLQMNSLRAEDTAVYYCARRIKYYDIEGEGAFDIWGQGTMVTVSS
VL: DIVMTQTPPSLPVNPGEPASISCRSSQSLLHRNGYNYLDWYLQKPGQSPQLLIHLGSYRASGVPDRFSGSGSGTDFTLKISRVEAEDVGVYYCMQPLQTPFTFGPGTKVDIK
With B2, in the experiment with human MMP-14, the “IC50 of MMP-14 inhibition … Fab” value is 8.6 nM. Further, the “MMP-24 activity, 100 nM final Fab” value with MMP-24 stood at 65 % inhibition.

B3: M0040-A06 IgG (antibody, V domains shown)
VH: EVQLLESGGGLVQPGGSLRLSCAASGFTFSYYGMYWVRQAPGKGLEWVSSISSSGGYTDYADSVKGRFTISRDNSKNTLYLQMNSLRAEDTAVYYCARRIKYYDIEGEGAFDIWGQGTMVTVSS
VL: DIVMTQTPPSLPVNPGEPASISCRSSQSLLHRNGYNYLDWYLQKPGQSPQLLIHLGSYRASGVPDRFSGSGSGTDFTLKISRVEAEDVGVYYCMQPLQTPFTFGPGTKVDIK
On to B3, for which the “IC50 of MMP-14 inhibition (MMP-14 at 2 pM), IgG” value (“IC50 of MMP-14 inhibition … IgG” for short) with human MMP-14 came out at 1.7 nM.

B4: M0039-H08 Fab (Fab, V domains shown)
VH: EVQLLESGGGLVQPGGSLRLSCAASGFTFSAYNMGWVRQAPGKGLEWVSSISSSGGYTGYADSVKGRFTISRDNSKNTLYLQMNSLRAEDTAVYYCARDLYRGFDYWGQGTLVTVSS
VL: DIQMTQSPATLSVSPGERATLSCRASESVKNNLAWYQQKPGQAPRLLIYGVSTRAPGIPARFSGSGSGTDFTLTISSLEPEDFAVYYCQQRSNWPPVTFGQGTRLEIK
With B4, in the experiment with human MMP-14, the “IC50 of MMP-14 inhibition … Fab” value is 23 nM.

B5: M0039-H08 IgG (antibody, V domains shown)
VH: EVQLLESGGGLVQPGGSLRLSCAASGFTFSAYNMGWVRQAPGKGLEWVSSISSSGGYTGYADSVKGRFTISRDNSKNTLYLQMNSLRAEDTAVYYCARDLYRGFDYWGQGTLVTVSS
VL: DIQMTQSPATLSVSPGERATLSCRASESVKNNLAWYQQKPGQAPRLLIYGVSTRAPGIPARFSGSGSGTDFTLTISSLEPEDFAVYYCQQRSNWPPVTFGQGTRLEIK
With B5, in the experiment with human MMP-14, the “IC50 of MMP-14 inhibition … IgG” value was found to be 7.4 nM.

B6: M0033-H07 Fab (Fab, V domains shown)
VH: EVQLLESGGGLVQPGGSLRLSCAASGFTFSVYGMVWVRQAPGKGLEWVSVISSSGGSTWYADSVKGRFTISRDNSKNTLYLQMNSLRAEDTALYYCARPFSRRYGVFDYWGQGTLVTVSS
VL: DIQMTQSPSSLSASVGDRVTITCRASQGIRNFLAWYQQKPGKVPKLLVFGASALQSGVPSRFSGSGSGTDFTLTISGLQPEDVATYYCQKYNGVPLTFGGGTKVEIK
As for B6, in the experiment with human MMP-14, the “IC50 of MMP-14 inhibition … Fab” value stood at 11.5 nM.

B7: M0038-E06 Fab (Fab, V domains shown)
VH: EVQLLESGGGLVQPGGSLRLSCAASGFTFSPYVMHWVRQAPGKGLEWVSSISPSGGWTYYADSVKGRFTISRDNSKNTLYLQMNSLRAEDMAVYYCARGTGAYGMDVWGQGTTVTVSS
VL: DIQMTQSPGTLSLSPGDRATLSCGASQLVVSNYIAWYQQKPGQAPRLLMYAGSIRATGIPDRFSGSGSGTDFTLTISRLEPEDFAIYYCQQRSNWPWTFGQGTKVEIK
For the molecule B7, in the experiment with human MMP-14, the “IC50 of MMP-14 inhibition … Fab” value turned out to be 16.6 nM.

B8: M0038-E06 IgG (antibody, V domains shown)
VH: EVQLLESGGGLVQPGGSLRLSCAASGFTFSPYVMHWVRQAPGKGLEWVSSISPSGGWTYYADSVKGRFTISRDNSKNTLYLQMNSLRAEDMAVYYCARGTGAYGMDVWGQGTTVTVSS
VL: DIQMTQSPGTLSLSPGDRATLSCGASQLVVSNYIAWYQQKPGQAPRLLMYAGSIRATGIPDRFSGSGSGTDFTLTISRLEPEDFAIYYCQQRSNWPWTFGQGTKVEIK
Take B8: in the experiment with human MMP-14, the “IC50 of MMP-14 inhibition … IgG” value turned out to be 7.2 nM.

B9: M0040-A11 Fab (Fab, V domains shown)
VH: EVQLLESGGGLVQPGGSLRLSCAASGFTFSHYVMFWVRQAPGKGLEWVSRIVPSGGATMYADSVKGRFTISRDNSKNTLYLQMNSLRAEDTAVYYCARDRPLYDSSGYVDYWGQGTLVTVSS
VL: QSALTQPPSASGSPGQSVTISCTGTSSDVGAYNYVSWYQQHPDKAPKLIIYNVNERPSGVPDRFSGSKSGNTASLTVSGLQAEDEADYYCTSYAGSNKIGVSGTGTKVTVL
With B9, in the experiment with human MMP-14, the “IC50 of MMP-14 inhibition … Fab” value was found to be 23.2 nM. Also, the “MMP-24 activity, 100 nM final Fab” value with MMP-24 was found to be 58 % inhibition.

B10: M0040-A11 IgG (antibody, V domains shown)
VH: EVQLLESGGGLVQPGGSLRLSCAASGFTFSHYVMFWVRQAPGKGLEWVSRIVPSGGATMYADSVKGRFTISRDNSKNTLYLQMNSLRAEDTAVYYCARDRPLYDSSGYVDYWGQGTLVTVSS
VL: QSALTQPPSASGSPGQSVTISCTGTSSDVGAYNYVSWYQQHPDKAPKLIIYNVNERPSGVPDRFSGSKSGNTASLTVSGLQAEDEADYYCTSYAGSNKIGVSGTGTKVTVL
Regarding B10, the “IC50 of MMP-14 inhibition … IgG” value in the experiment with human MMP-14 was determined as 6.7 nM.

B11: M0031-C02 Fab (Fab, V domains shown)
VH: EVQLLESGGGLVQPGGSLRLSCAASGFTFSPYPMGWVRQAPGKGLEWVSSIVSSGGLTLYADSVKGRFTISRDNSKNTLYLQMNSLRAEDTAVYYCARGGRLYDILTGQGAPFDYWGQGTLVTVSS
VL: DIQMTQSPLSLPVTPGEPASISCRSSQSLLHSNGYYYLDWYLQKPGQSPQLLIYLGSYRASGVPDRFSGSGSGTDFTLKISSVEAEDVGVYYCMQALQTPLTFGGGTRVDIK
In the case of B11, the “IC50 of MMP-14 inhibition … Fab” value in the experiment with human MMP-14 stood at 56 nM. In addition, in the experiment with MMP-24, the “MMP-24 activity, 100 nM final Fab” value is 54 % inhibition.

B12: M0031-C02 IgG (antibody, V domains shown)
VH: EVQLLESGGGLVQPGGSLRLSCAASGFTFSPYPMGWVRQAPGKGLEWVSSIVSSGGLTLYADSVKGRFTISRDNSKNTLYLQMNSLRAEDTAVYYCARGGRLYDILTGQGAPFDYWGQGTLVTVSS
VL: DIQMTQSPLSLPVTPGEPASISCRSSQSLLHSNGYYYLDWYLQKPGQSPQLLIYLGSYRASGVPDRFSGSGSGTDFTLKISSVEAEDVGVYYCMQALQTPLTFGGGTRVDIK
B12: in the experiment with human MMP-14, the “IC50 of MMP-14 inhibition … IgG” value stood at 8 nM.

B13: M0038-F08 Fab (Fab, V domains shown)
VH: EVQLLESGGGLVQPGGSLRLSCAASGFTFSRYKMWWVRQAPGKGLEWVSGIRPSGGLTRYADSVKGRFTISRDNSKNTLYLQMNSLRAEDTAVYYCARRGDYVGGFDYWGQGTLVTVSS
VL: DIQMTQSPGTLSLSPGERATLSCRASQSVSSSYLAWYQQKPGQAPRLLIYGASSRATGIPDRFSGSGSGTDFTLTISRLEPEDFAVYYCQHYGGSQAFGGGTKVEIK
Turning to B13, the “IC50 of MMP-14 inhibition … Fab” value with human MMP-14 is 31.1 nM.

B14: M0038-F08 IgG (antibody, V domains shown)
VH: EVQLLESGGGLVQPGGSLRLSCAASGFTFSRYKMWWVRQAPGKGLEWVSGIRPSGGLTRYADSVKGRFTISRDNSKNTLYLQMNSLRAEDTAVYYCARRGDYVGGFDYWGQGTLVTVSS
VL: DIQMTQSPGTLSLSPGERATLSCRASQSVSSSYLAWYQQKPGQAPRLLIYGASSRATGIPDRFSGSGSGTDFTLTISRLEPEDFAVYYCQHYGGSQAFGGGTKVEIK
Take B14: in the experiment with human MMP-14, the “IC50 of MMP-14 inhibition … IgG” value is 23 nM.

B15: M0037-D01 Fab (Fab, V domains shown)
VH: EVQLLESGGGLVQPGGSLRLSCAASGFTFSMYMMIWVRQAPGKGLEWVSSIYPSGGNTMYADSVKGRFTISRDNSKNTLYLQMNSLRAEDTAVYYCATGVLRYFDWDAGSGMDVWGQGTTVTVSS
VL: DIQMTQSPSSLSASVGDRVTITCRASQGIRNDLGWYQQKPGKAPKRLIYVASSLQSGVPSRFSGSGSGTEFTLTISSLQPEDFATYYCLQHNSYPWTFGQGTKVEIK
For B15, in the experiment with human MMP-14, the “IC50 of MMP-14 inhibition … Fab” value was determined as 4.3 nM.

B16: M0038-F01 Fab (Fab, V domains shown)
VH: EVQLLESGGGLVQPGGSLRLSCAASGFTFSLYSMNWVRQAPGKGLEWVSSIYSSGGSTLYADSVKGRFTISRDNSKNTLYLQMNSLRAEDTAVYYCARGRAFDIWGQGTMVTVSS
VL: DIQMTQSPSSLSAFVGDKVTITCRASQSVGTYLNWYQQKAGKAPELLIYATSNLRSGVPSRFSGSGSGTDFTLTINTLQPEDFATYYCQQSYSIPRFTFGPGTKVDIK
As to B16, the “IC50 of MMP-14 inhibition … Fab” value with human MMP-14 amounted to 3.8 nM.

B17: M0031-F01 Fab (Fab, V domains shown)
VH: EVQLLESGGGLVQPGGSLRLSCAASGFTFSTYEMHWVRQAPGKGLEWVSSIYSSGGWTGYADSVKGRFTISRDNSKNTLYLQMNSLRAEDTAVYYCARSQQYYDFSSRYYGMDVWGQGTTVTVSS
VL: QSELTQPPSVSGTPGQRVTISCSGTSANIGRNAVHWYQQLPGTAPKLLIHSNNRRPSGVPDRFSGSKSGTSASLAISGLQSEDEADYYCAAWENSLNAFYVFGTGTKVTVL
For B17, the “IC50 of MMP-14 inhibition … Fab” value with human MMP-14 stood at 25.3 nM.

B18: M0031-F01 IgG (antibody, V domains shown)
VH: EVQLLESGGGLVQPGGSLRLSCAASGFTFSTYEMHWVRQAPGKGLEWVSSIYSSGGWTGYADSVKGRFTISRDNSKNTLYLQMNSLRAEDTAVYYCARSQQYYDFSSRYYGMDVWGQGTTVTVSS
VL: QSELTQPPSVSGTPGQRVTISCSGTSANIGRNAVHWYQQLPGTAPKLLIHSNNRRPSGVPDRFSGSKSGTSASLAISGLQSEDEADYYCAAWENSLNAFYVFGTGTKVTVL
For B18, the “IC50 of MMP-14 inhibition … IgG” value with human MMP-14 was determined as 15.2 nM.

B19: M0043-G02 Fab (Fab, V domains shown)
VH: EVQLLESGGGLVQPGGSLRLSCAASGFTFSWYPMFWVRQAPGKGLEWVSGIYSSGGPTDYADSVKGRFTISRDNSKNTLYLQMNSLRAEDTAVYYCAKDTLGRYYDFWSGYSYGMDVWGQGTTVTVSS
VL: DIQMTQSPGTLSLSPGERATLSCRASQSVSSSYLAWYQQKPGQAPRLLIYGASSRATGIPDRFSGSGSGTDFTLTISRLEPEDFAVYYCQSGVTFGGGTKVEIK
As to B19, the “IC50 of MMP-14 inhibition … Fab” value in the experiment with human MMP-14 worked out at 9.3 nM. Besides, in the experiment with MMP-24, the “MMP-24 activity, 100 nM final Fab” value stood at 74 % inhibition.

For the origin of these results see US7745587 (DYAX, dated 2010).
